Experimental data taken from US6689362B1, “Method for treating T-lineage leukemias and lymphomas using a CD7-specific monoclonal antibody (TXU-7) linked to the pokeweed antiviral protein (PAP)” (priority 1997, dated 2004).
“And” between values parts separate entries of the source, which are not always exact repeats. Identical values can stand only once. Like-named read-outs stand apart in the source and are kept apart here.

Assays:
[1] = test system: ribosomes (nuclease-treated rabbit reticulocyte lysate); test: Cell-free protein synthesis inhibition assay (rabbit reticulocyte cell-free translation); assay type: biochemical
Procedure: The ribosome-inhibiting activity of PAP was analyzed in a cell-free translation system obtained in kit form from Promega Biotec, Inc. (Madison, Wis.) and based on a method developed by Pelham and Jackson. Pelham et al., Eur. J. Biochem., 67, 247 (1976). This system consists of the following: nuclease-treated rabbit reticulocyte lysate (35 μL), 1 mM animo acid mixture minus leucine (1 μl), [^3H] leucine (183 Ci/mmol, 1 mCi/mL, Amersham Corp., Arlington Hts, Ill.), 5 μl of brome mosaic virus RNA (2 μL of 0.5 μg/μL stock), and water or buffer to bring the final volume to 50 μL per assay tube. Samples are diluted in PBS and 2.5-5 μL amounts were added to the lysate. Control samples minus toxin were set up in triplicate. At 0 hr (immediately after adding [^3H]-leucine and RNA and mixing gently to start the reaction), 10 μL aliquots were removed from the control and mixed with 1 mL 1 N NaOH to stop the reaction. The control toxin-treated samples were incubated an additional 60 minutes at 37° C., at which time 10 μL samples were again removed to NaOH, mixed, and 50 μL of 30% H2O2 added to decolorize the samples.
Following 10 minutes incubation at 37° C., the tubes were transferred to an ice bath and 2 mL of cold 4% casamino acids followed by 2 mL of cold 50% trichioroacetic acid (TCA) were added to precipitate the synthesized protein. After 30 minutes on ice, the samples were filtered through GF/F glass microfiber filters (Whatman, Hillsboro, Oreg.). The extent of protein synthesis inactivation is determined as percent control response=100 ×([^3H]-leucine incorporation [mean cpm at t60′−mean cpm at t0] for the toxin-treated samples)/([^3H]-leucine incorporation [mean cpm at t60′−mean cpm at t0] for the untreated control).

BALB/c mice = test: Acute toxicity of PAP, single i.v. injection; assay type: in vivo
Procedure: Female BALB/c mice weighing approximately 20 grams were given a single intravenous injection of purified PAP (Lot #P-1993) via the tail vein. Eight different doses were used ranging from 10 μg to 175 μg and each dose was tested in 5 mice. Mice were monitored for 30 days for morbidity and mortality. […] This non-toxic dose is >90-fold higher than the highest PAP dose that will be given to patients as a TXU-7 antibody conjugate. Deaths were observed only in the groups receiving 150 μg/20 g mouse (=7.5 mg/kg) or higher doses.

B1: PAP: 29 kDa ribosome-inactivating protein from spring leaves of pokeweed (Phytolacca americana) (protein)
chain: VNTIIYNVGSTTISKYATFLNDLRNEAKDPSLKCYGIPMLPNTNTNPKYVLVELQGSNKKTITLMLRRNNLYVMGYSDPFETNKCRYHIFNDISGTERQDVETTLCPNANSRVSKNINFDSRYPTLESKAGVKSRSQVQLGIQILDSNIGKISGVMSFTEKTEAEFLLVAIQMVSEAARFKYIENQVKTNFNRAFNPNPKVLNLQETWGKISTAIHDAKNGVLPKPLELVDASGAKWIVLRVDEIKPDVALLNYVGGSCQTTY
IC (mean SE) value, ribosome inhibitory activity (first IC value) ([1]; purified PAP batches (n=6)): 0.34 ± 0.06 ng/mL
IC value, ribosome inhibitory activity (second IC value) ([1]; purified PAP batches (n=6)): 3.7±1.1 ng/mL and 130.37 pM
IC50 ([1]; purified PAP batches (n=6), read-out: IC value, ribosome inhibitory activity (first IC value)): 0.0122 nM
range of first IC value ([1]; range over PAP batches (n=6)): 0.17 to 0.58 ng/mL
range of second IC value ([1]; range over PAP batches (n=6)): 0.63-7.5 ng/mL and 22-263 pM
IC50 ([1]; range over PAP batches (n=6), read-out: range of first IC value): 0.006 to 0.02 nM
non-toxic dose relative to highest PAP dose to be given to patients as conjugate (BALB/c mice; 100 μg/20 g mouse dose): > 90 fold
lethal dose relative to highest PAP dose to be given to patients as TXU-7-PAP (BALB/c mice; 150 μg/20 g mouse dose): > 60 fold
Acute Toxicity in Mice LD50 (i.v.) (BALB/c mice; i.v.): LD50 (i.v.) 150 mg/mouse
